# Source: IntAct's records for PubMed 31515488
# B1: Cyclin-dependent kinase 4 inhibitor C (Homo sapiens), P42773 (parent)
# chain: MAEPWGNELASAAARGDLEQLTSLLQNNVNVNAQNGFGRTALQVMKLGNPEIARRLLLRGANPDLKDRTGFAVIHDAARAGFLDTLQTLLEFQADVNIEDNEGNLPLHLAAKEGHLRVVEFLVKHTASNVGHRNHKGDTACDLARLYGRNEVVSLMQANGAGGATNLQ
# B2: Protein FAM9B (Homo sapiens), Q8IZU0 (parent)
# chain: MAAWGKKHAGKDPVRDECEERNRFTETREEDVTDEHGEREPFAETDEHTGANTKKPEDTAEDLTAKRKRMKMDKTCSKTKNKSKHALRKKQLKRQKRDYIHSLKLLNVLEEYITDEQKEEEEEEGEEEELIRIFQEQQKKWQQYRSVRRERLKEMKLLRDQFVKALEDFEDLCDRVFSDEDSELDN
# partner: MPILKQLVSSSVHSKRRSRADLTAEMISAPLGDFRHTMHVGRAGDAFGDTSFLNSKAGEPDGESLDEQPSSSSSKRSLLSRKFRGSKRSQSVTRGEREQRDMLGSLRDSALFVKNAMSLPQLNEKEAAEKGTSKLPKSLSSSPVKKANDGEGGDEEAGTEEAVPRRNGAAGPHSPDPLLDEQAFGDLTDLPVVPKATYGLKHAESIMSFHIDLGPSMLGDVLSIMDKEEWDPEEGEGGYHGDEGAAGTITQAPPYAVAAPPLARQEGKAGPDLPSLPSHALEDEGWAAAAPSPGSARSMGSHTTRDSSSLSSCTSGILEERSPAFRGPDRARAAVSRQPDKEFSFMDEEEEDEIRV
# B3: Isoform 1 of Mothers against decapentaplegic homolog 3 (Homo sapiens), P84022-1 (parent)
# chain: MSSILPFTPPIVKRLLGWKKGEQNGQEEKWCEKAVKSLVKKLKKTGQLDELEKAITTQNVNTKCITIPRSLDGRLQVSHRKGLPHVIYCRLWRWPDLHSHHELRAMELCEFAFNMKKDEVCVNPYHYQRVETPVLPPVLVPRHTEIPAEFPPLDDYSHSIPENTNFPAGIEPQSNIPETPPPGYLSEDGETSDHQMNHSMDAGSPNLSPNPMSPAHNNLDLQPVTYCEPAFWCSISYYELNQRVGETFHASQPSMTVDGFTDPSNSERFCLGLLSNVNRNAAVELTRRHIGRGVRLYYIGGEVFAECLSDSAIFVQSPNCNQRYGWHPATVCKIPPGCNLKIFNNQEFAALLAQSVNQGFEAVYQLTRMCTIRMSFVKGWGAEYRRQTVTSTPCWIELHLNGPLQWLDKVLTQMGSPSIRCSSVS
# partner: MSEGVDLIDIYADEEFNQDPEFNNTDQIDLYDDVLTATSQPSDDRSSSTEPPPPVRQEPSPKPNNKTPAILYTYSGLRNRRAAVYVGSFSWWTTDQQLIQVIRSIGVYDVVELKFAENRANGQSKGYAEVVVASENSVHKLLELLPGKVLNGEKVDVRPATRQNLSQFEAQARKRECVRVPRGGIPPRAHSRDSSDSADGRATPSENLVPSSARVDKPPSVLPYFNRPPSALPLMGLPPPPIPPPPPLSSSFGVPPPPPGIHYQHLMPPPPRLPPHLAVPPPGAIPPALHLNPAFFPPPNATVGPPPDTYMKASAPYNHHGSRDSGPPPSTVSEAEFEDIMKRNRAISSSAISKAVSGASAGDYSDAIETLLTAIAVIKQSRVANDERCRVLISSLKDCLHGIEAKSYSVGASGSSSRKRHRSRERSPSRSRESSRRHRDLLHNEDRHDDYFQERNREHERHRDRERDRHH
# B4: Charged multivesicular body protein 4a (Homo sapiens), Q9BY43 (parent)
# chain: MSGLGRLFGKGKKEKGPTPEEAIQKLKETEKILIKKQEFLEQKIQQELQTAKKYGTKNKRAALQALRRKKRFEQQLAQTDGTLSTLEFQREAIENATTNAEVLRTMELAAQSMKKAYQDMDIDKVDELMTDITEQQEVAQQISDAISRPMGFGDDVDEDELLEELEELEQEELAQELLNVGDKEEEPSVKLPSVPSTHLPAGPAPKVDEDEEALKQLAEWVS
# partner: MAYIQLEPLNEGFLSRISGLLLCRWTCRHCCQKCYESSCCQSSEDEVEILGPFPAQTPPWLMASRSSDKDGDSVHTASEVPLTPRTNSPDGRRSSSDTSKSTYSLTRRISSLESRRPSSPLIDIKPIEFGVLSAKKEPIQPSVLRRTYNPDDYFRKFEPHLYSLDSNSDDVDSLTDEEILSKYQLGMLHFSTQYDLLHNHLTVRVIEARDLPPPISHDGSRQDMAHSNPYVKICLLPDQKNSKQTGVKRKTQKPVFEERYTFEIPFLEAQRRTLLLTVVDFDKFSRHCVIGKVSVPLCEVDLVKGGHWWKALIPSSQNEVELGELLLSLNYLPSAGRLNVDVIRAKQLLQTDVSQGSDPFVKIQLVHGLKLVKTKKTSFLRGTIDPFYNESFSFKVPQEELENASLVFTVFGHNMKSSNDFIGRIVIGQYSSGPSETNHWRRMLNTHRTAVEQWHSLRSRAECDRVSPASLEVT
# B5: Tuftelin-interacting protein 11 (Homo sapiens), Q9UBB9 (parent)
# chain: MSLSHLYRDGEGRIDDDDDERENFEITDWDLQNEFNPNRQRHWQTKEEATYGVWAERDSDDERPSFGGKRARDYSAPVNFISAGLKKGAAEEAELEDSDDEEKPVKQDDFPKDFGPRKLKTGGNFKPSQKGFAGGTKSFMDFGSWERHTKGIGQKLLQKMGYVPGRGLGKNAQGIINPIEAKQRKGKGAVGAYGSERTTQSMQDFPVVDSEEEAEEEFQKELSQWRKDPSGSKKKPKYSYKTVEELKAKGRISKKLTAPQKELSQVKVIDMTGREQKVYYSYSQISHKHNVPDDGLPLQSQQLPQSGKEAKAPGFALPELEHNLQLLIDLTEQEIIQNDRQLQYERDMVVNLFHELEKMTEVLDHEERVISNLSKVLEMVEECERRMQPDCSNPLTLDECARIFETLQDKYYEEYRMSDRVDLAVAIVYPLMKEYFKEWDPLKDCTYGTEIISKWKSLLENDQLLSHGGQDLSADAFHRLIWEVWMPFVRNIVTQWQPRNCDPMVDFLDSWVHIIPVWILDNILDQLIFPKLQKEVENWNPLTDTVPIHSWIHPWLPLMQARLEPLYSPIRSKLSSALQKWHPSDSSAKLILQPWKDVFTPGSWEAFMVKNIVPKLGMCLGELVINPHQQHMDAFYWVIDWEGMISVSSLVGLLEKHFFPKWLQVLCSWLSNSPNYEEITKWYLGWKSMFSDQVLAHPSVKDKFNEALDIMNRAVSSNVGAYMQPGARENIAYLTHTERRKDFQYEAMQERREAENMAQRGIGVAASSVPMNFKDLIETKAEEHNIVFMPVIGKRHEGKQLYTFGRIVIYIDRGVVFVQGEKTWVPTSLQSLIDMAK
# partner: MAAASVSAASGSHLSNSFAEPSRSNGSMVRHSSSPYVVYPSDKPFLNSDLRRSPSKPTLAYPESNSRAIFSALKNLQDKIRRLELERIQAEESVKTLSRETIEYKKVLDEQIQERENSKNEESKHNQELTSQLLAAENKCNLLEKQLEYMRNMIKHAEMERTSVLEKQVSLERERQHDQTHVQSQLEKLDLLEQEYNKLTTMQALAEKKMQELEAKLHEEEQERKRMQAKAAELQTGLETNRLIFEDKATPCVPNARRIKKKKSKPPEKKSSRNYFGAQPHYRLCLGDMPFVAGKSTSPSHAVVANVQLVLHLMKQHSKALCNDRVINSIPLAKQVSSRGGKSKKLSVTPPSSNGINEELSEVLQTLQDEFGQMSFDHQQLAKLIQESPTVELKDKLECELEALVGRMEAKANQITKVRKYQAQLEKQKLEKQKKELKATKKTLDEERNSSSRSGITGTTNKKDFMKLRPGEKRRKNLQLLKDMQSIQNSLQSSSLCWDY
# Variants of: B1
# Conditions: with cdk6_human CDK6, Q00534
# Chain of cdk6_human CDK6, Q00534 (Q00534 whole entry): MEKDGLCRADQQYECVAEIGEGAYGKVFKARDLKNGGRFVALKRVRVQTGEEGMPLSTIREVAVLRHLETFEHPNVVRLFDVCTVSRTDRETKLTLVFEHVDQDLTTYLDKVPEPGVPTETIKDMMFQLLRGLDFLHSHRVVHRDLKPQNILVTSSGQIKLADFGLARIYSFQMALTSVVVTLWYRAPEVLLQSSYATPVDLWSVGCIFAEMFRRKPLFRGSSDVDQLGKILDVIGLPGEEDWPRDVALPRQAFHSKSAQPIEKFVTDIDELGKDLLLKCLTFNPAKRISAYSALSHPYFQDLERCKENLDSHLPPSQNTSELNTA
row,effect of a mutation on the interaction,Variant
1,with no effect,V31L
2,with no effect,R133Q
3,with no effect,R117Q

# Variants of: B1
# Conditions: with htf4_human TCF12, Q99081
# Chain of htf4_human TCF12, Q99081 (Q99081 whole entry): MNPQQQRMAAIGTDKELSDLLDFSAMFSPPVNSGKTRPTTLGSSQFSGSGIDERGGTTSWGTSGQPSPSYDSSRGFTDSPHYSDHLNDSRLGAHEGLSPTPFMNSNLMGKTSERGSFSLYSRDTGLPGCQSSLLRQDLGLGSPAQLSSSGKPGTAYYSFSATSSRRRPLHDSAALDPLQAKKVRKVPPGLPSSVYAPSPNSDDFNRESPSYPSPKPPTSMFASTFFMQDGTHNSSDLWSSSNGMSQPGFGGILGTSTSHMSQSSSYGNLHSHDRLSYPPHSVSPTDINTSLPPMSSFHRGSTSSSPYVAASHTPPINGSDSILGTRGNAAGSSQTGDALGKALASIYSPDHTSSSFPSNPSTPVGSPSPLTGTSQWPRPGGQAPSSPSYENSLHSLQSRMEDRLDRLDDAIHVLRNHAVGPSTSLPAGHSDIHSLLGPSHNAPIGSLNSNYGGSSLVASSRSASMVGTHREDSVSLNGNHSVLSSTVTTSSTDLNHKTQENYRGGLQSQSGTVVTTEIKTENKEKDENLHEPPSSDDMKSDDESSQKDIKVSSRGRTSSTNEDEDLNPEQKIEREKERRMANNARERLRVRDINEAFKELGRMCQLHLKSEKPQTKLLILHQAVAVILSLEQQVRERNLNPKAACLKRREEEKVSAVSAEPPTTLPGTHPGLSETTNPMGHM
row,effect of a mutation on the interaction,Variant
1,disrupting interaction strength,V31L

# Variants of: B1
# Conditions: with cdk4_human CDK4, P11802
row,effect of a mutation on the interaction,Variant
1,with no effect,V31L

# Variants of: B1
# Conditions: with itf2_human TCF4, P15884
# Chain of itf2_human TCF4, P15884 (P15884 whole entry): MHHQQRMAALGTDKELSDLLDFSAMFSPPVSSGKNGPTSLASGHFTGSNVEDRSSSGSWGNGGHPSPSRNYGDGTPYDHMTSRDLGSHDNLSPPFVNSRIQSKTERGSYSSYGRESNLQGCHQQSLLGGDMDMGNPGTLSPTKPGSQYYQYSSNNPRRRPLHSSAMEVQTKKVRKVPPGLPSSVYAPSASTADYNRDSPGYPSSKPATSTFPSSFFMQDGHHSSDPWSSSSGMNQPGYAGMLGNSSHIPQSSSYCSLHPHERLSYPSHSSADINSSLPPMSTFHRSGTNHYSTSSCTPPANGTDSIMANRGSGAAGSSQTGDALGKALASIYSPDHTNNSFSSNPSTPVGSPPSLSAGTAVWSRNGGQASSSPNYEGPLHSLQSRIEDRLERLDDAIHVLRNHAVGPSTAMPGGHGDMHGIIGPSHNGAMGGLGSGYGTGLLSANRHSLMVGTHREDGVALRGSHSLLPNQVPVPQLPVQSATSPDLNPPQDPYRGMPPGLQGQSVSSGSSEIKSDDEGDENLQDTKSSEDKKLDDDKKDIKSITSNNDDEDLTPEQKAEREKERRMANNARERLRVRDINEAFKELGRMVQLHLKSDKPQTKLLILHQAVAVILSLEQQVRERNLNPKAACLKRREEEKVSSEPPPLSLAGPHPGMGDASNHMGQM
row,effect of a mutation on the interaction,Variant
1,disrupting interaction strength,V31L

# Variants of: B1
# Conditions: with nagk_human NAGK
row,effect of a mutation on the interaction,Variant
1,disrupting interaction strength,V31L

# Variants of: B1
# Conditions: with sahh2_human AHCYL1, O43865
# Chain of sahh2_human AHCYL1, O43865 (O43865 whole entry): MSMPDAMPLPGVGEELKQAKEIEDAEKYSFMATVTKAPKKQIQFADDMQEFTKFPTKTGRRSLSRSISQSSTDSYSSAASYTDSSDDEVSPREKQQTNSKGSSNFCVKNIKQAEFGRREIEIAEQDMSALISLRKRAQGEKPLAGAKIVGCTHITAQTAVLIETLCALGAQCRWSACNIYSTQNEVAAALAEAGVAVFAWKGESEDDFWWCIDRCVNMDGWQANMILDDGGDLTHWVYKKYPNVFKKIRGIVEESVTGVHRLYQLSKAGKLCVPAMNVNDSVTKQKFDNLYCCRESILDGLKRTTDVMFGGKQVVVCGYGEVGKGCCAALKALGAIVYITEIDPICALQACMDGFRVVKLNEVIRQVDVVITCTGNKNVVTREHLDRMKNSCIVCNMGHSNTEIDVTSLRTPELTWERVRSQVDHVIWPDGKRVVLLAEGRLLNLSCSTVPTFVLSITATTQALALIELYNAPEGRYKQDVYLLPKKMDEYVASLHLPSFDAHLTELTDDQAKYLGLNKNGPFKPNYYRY
row,effect of a mutation on the interaction,Variant
1,disrupting interaction strength,V31L

# Variants of: B2
# Conditions: with borg4_human CDC42EP4, Q9H3Q1
row,effect of a mutation on the interaction,Variant
1,with no effect,R23H

# Variants of: B3
# Conditions: with cpsf7_human CPSF7, Q8N684
row,effect of a mutation on the interaction,Variant
1,disrupting interaction strength,P393L

# Variants of: B4
# Conditions: with syt17_human SYT17, Q9BSW7
row,effect of a mutation on the interaction,Variant
1,with no effect,G153R

# Variants of: B5
# Conditions: with cep57_human CEP57, Q86XR8
row,effect of a mutation on the interaction,Variant
1,with no effect,R8Q
2,with no effect,S688L
